Data taken from patent US20200239586A1 (LA TROBE UNIVERSITY, published 2020).

Key:
[1] = biological target: phage expressed hFn14 mutant S54A (human, UniProt Q9NP84 28-77); assay: phage ELISA, mAb coated (Method 2)
Method: (§1) The wells of Maxisorp immunoplates (Nunc) were coated overnight at 4° C. with the target monoclonal antibodies or recombinant Tweak-Fc at a concentration of 1.5 μg/ml in PBS. mAb 5G8 was used as a negative control for ELISA plates coated with tested antibodies. […] 10-fold serial dilutions of phage were made using PBS solution and phage dilutions were added to the coated, blocked ELISA plates for 1 hour, shaking at room temperature. Phage was subsequently removed from the wells and the ELISA plates were washed three times with PBS/0.05% Tween 20.
Method A: HRP-conjugated anti-M13-phage antibody (GE Healthcare) at a 1/5000 dilution in PBS was then added to the wells of the ELISA plates for 1 hour, shaking at room temperature. The antibody solution was then removed from the wells and the ELISA plates were washed four times with PBS/0.05% Tween 20. Method B: Biotin-conjugated anti-M13-phage antibody (GE Healthcare) diluted in PBS was then added to the wells of the ELISA plates for 1 hour shaking at room temperature. The antibody solution was then removed from the wells and the ELISA plates were washed three times with PBS/0.05% Tween 20. HRP-conjugated Streptavidin diluted in PBS was then added to the wells of the ELISA plates for 1 hour, shaking at room temperature. […] Optical density at 450 nm was quantified using a Spectramax absorbance spectrophotometer.

[2] = biological target: phage-displayed hFn14 extracellular domain mutant D45A (human, UniProt Q9NP84 28-77); assay: phage ELISA, antibody on plate, 10-fold phage dilutions
Source text: (§2) ELISAs showing the reactivity of the repertoire of hFn14 phage constructs with the anti-Fn14 monoclonal antibodies CRCBT-06-001, CRCBT-06-002, CRCBT-06-003 and CRCBT-06-004. Binding was detected using HRP-conjugated anti-M13-phage polyclonal IgG and TMB substrate. Optical density at 450 nm was quantified using a Spectramax spectrophotometer. Error bars for each dilution represent the standard deviation of duplicate assays. In this figure, reference to “FN14 Ectodomain” is a reference to the extracellular domain of hFn14. Methods according to Epitope mapping using phage expressed Fn14—Method 1.
(§3) The wells of Maxisorp immunoplates (Nunc) were coated overnight at 4° C. with the target monoclonal antibodies or recombinant Tweak-Fc at a concentration of 2 μg/mL in PBS. MAb 5G8 was used as a negative control for ELISA plates coated with tested antibodies. Recombinant Fc alone was used as a negative control for ELISA plates coated with recombinant Tweak-Fc. […] 10-fold serial dilutions of phage were made using 5% skim milk/PBS solution in 2 ml-well microtiter plates and phage dilutions were added to the coated, blocked ELISA plates for 1 hr, with vigorous shaking at room temperature. Phage were subsequently removed from the wells and the ELISA plates were washed 4× with PBS/0.05% Tween 20. HRP-conjugated anti-M13-phage polyclonal IgG diluted in PBS was then added to the wells of the ELISA plates for 1 hr, with vigorous shaking at room temperature. The antibody solution was then removed from the wells and the ELISA plates were washed 5× with PBS/0.05% Tween 20. ELISAs were developed using TMB substrate and the reaction was stopped using 2 M H₂SO₄ solution. Optical density at 450 nm was quantified using a Spectramax absorbance spectrophotometer.

[3] = biological target: phage-displayed hFn14 extracellular domain mutant D62E (human, UniProt Q9NP84 28-77); assay: as above
Source text: as §2, §3

[4] = biological target: phage-displayed hFn14 extracellular domain mutant M50A (human, UniProt Q9NP84 28-77); assay: as above
Source text: as §2, §3

[5] = biological target: phage-displayed hFn14 extracellular domain mutant K48A (human, UniProt Q9NP84 28-77); assay: as above
Source text: as §2, §3

[6] = biological target: phage expressed hFn14 mutant W42A (human, UniProt Q9NP84 28-77); assay: phage ELISA (Method 2), antibody on plate, phage dilution 1/X on the x axis
Source text: (§4) For mutants P59A and F63A, binding was detected using HRP-conjugated anti-M13-phage polyclonal IgG and TMB substrate. For all other mutants binding was detected using Biotin-conjugated anti-M13-phage monoclonal antibody followed by HRP-conjugated Streptavidin and TMB substrate. Optical density at 450 nm was quantified using a Spectramax spectrophotometer. Error bars for each dilution represent the standard deviation of duplicate assays. FIG. 27A wild type Fn14, FIG. 27B W42A, FIG. 27C S54A, FIG. 27D A57G, FIG. 27E P59A, FIG. 27F S61A, FIG. 27G F63A, FIG. 27H L65A. In all cases error bars represent the standard deviation. X axis=dilution of phage. Methods according to Epitope mapping using phage expressed Fn14—Method 2
as §1
(§5) Method A: HRP-conjugated anti-M13-phage antibody (GE Healthcare) at a 1/5000 dilution in PBS was then added to the wells of the ELISA plates for 1 hour, shaking at room temperature. The antibody solution was then removed from the wells and the ELISA plates were washed four times with PBS/0.05% Tween 20. Method B: Biotin-conjugated anti-M13-phage antibody (GE Healthcare) diluted in PBS was then added to the wells of the ELISA plates for 1 hour shaking at room temperature. The antibody solution was then removed from the wells and the ELISA plates were washed three times with PBS/0.05% Tween 20. HRP-conjugated Streptavidin diluted in PBS was then added to the wells of the ELISA plates for 1 hour, shaking at room temperature. The solution was then removed from the wells and the ELISA plates were washed three times with PBS/0.05% Tween 20. ELISAs were developed using TMB substrate and the reaction was stopped using 2 M […] solution.

[7] = biological target: phage expressed hFn14 mutant A57G (human, UniProt Q9NP84 28-77); assay: as above
Source text: as §4, §1, §5

[8] = biological target: phage expressed hFn14 mutant S61A (human, UniProt Q9NP84 28-77); assay: as above
Source text: as §4, §1, §5

[9] = biological target: phage expressed hFn14 mutant P59A (human, UniProt Q9NP84 28-77); assay: as above
Source text: as §4, §1, §5

Measured: binding result

phage-displayed hFn14 extracellular domain mutant M50A, sequence (Q9NP84 28-77 M50A): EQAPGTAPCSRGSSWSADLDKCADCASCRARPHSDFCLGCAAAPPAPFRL
phage-displayed hFn14 extracellular domain mutant K48A, sequence (Q9NP84 28-77 K48A): as the sequence (Q9NP84 28-77 M50A) above, with K21A, A23M counted along it
phage-displayed hFn14 extracellular domain mutant D62E, sequence (Q9NP84 28-77 D62E): as the sequence (Q9NP84 28-77 M50A) above, with A23M, D35E counted along it
phage expressed hFn14 mutant S61A, sequence (Q9NP84 28-77 S61A): as the sequence (Q9NP84 28-77 M50A) above, with A23M, S34A counted along it
phage expressed hFn14 mutant W42A, sequence (Q9NP84 28-77 W42A): as the sequence (Q9NP84 28-77 M50A) above, with W15A, A23M counted along it
phage-displayed hFn14 extracellular domain mutant D45A, sequence (Q9NP84 28-77 D45A): as the sequence (Q9NP84 28-77 M50A) above, with D18A, A23M counted along it
phage expressed hFn14 mutant A57G, sequence (Q9NP84 28-77 A57G): as the sequence (Q9NP84 28-77 M50A) above, with A23M, A30G counted along it
phage expressed hFn14 mutant S54A, sequence (Q9NP84 28-77 S54A): as the sequence (Q9NP84 28-77 M50A) above, with A23M, S27A counted along it
phage expressed hFn14 mutant P59A, sequence (Q9NP84 28-77 P59A): as the sequence (Q9NP84 28-77 M50A) above, with A23M, P32A counted along it

B1: CRCBT-06-002 (antibody, IgG1, V domains shown)
VH: EVKLQQSGGGLVQPGGSMKLSCVASGFTFSYYWMNWVRQSPEQGLEWIAEIRLQSNDYPTHYAESVKGRFTISRDDSKNSVYLQMNNLRPEDTGIYYCACRYADYFDHWGQGTTLTVSS
VL: DTVLTQSPASLVVSLGQRATISCRASQSVSTSDYSYIHWYQQKPGQPPKFLIKYASNRDSGVPARFSGSGSGTDFTLNIHPVEEDDTAIYYCQHSWEIPPTFGAGTKLELQR
binds: all assays above

B2: CRCBT-06-001 (antibody, IgG2b, V domains shown)
VH: QVQLQQSGGGLVQPGGSMKLSCIASGFTFSSYWMSWVRQSPEKGLEWVAEIRSKSDNYATHYAESVKGKFTISRDDSKSRFFLQMNNLRAEDTGIYYCSSTYADYFHYWGQGTDLTVSS
VL: DIVMTQTPASLAVSLGQRATISCRASQSVSTSTYSYMHWYQQKPGQPPKLLIKYASSLESGVPARFSGSGSGTDFTLNIHPVEEDDTATYYCQHSWEIPYTFGGGTKLEIKR
binds: all assays above
